Experiments:
[1] = target: T1, hOX40L added as soluble protein in cell assays (human, UniProt P23510 51-183, limits assumed); experiment: cell-based or functional assay
T1 sequence: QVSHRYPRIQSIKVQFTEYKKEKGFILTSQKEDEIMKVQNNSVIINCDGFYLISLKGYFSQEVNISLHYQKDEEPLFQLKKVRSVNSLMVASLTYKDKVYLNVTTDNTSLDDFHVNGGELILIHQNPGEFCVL

[2] = target: T2, Recombinant Human OX40L Protein, His Tag (Acro Cat. IL3-H52H4) (human, UniProt P23510 51-183); experiment: SPR (Biacore 8K), antibody captured, human OX40L injected, 1:1 fit
T2 construct: Bought His-tagged protein; also called hOX40L
T2 sequence: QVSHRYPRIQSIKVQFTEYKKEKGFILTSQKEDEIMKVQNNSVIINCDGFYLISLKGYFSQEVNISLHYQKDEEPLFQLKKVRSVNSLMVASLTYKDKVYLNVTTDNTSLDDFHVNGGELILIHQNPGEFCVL
Experimental: (§1) Samples were injected in a multi-cycle manner over freshly captured mAb, by regenerating the capture surfaces with injection of glycine pH 1.5 for 30 sec at a flow rate of 30 μL/min. The data was processed and analyzed with Biacore Insight Evaluation Software Version 2.0.15.12933 (GE Healthcare) as follows. […] The responses from the two buffer blank injections were then subtracted from the reference subtracted data (2-1) to yield double-referenced data, which were fit to an 1:1 binding model to determine the apparent association (ka) and dissociation rate constants (kd). Their ratio provided the apparent equilibrium dissociation constant or affinity constant (KD=kd/ka).

[3] = target: T3, Recombinant Cynomolgus OX40L Protein, His Tag (SINO BIOLOGICAL, Cat. 11057-C07H) (cynomolgus, UniProt G7NVH7 51-183); experiment: SPR (Biacore 8K), antibody captured, cynomolgus OX40L injected, 1:1 fit
T3 construct: Bought protein
T3 sequence: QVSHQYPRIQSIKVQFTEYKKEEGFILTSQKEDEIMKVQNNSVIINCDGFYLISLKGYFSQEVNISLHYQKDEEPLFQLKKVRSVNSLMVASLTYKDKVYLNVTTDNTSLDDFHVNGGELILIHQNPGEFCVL
Experimental: as §1

human CD64 = human CD64 (human, UniProt P12314 16-288); experiment: SPR (Biacore 8K+), antibody captured by anti-human IgG Fc, receptor injected
Experimental: (§2) Briefly, a CM5 Series S sensor chip functionalized with anti-human IgG Fc antibody was used to capture antibodies at 5 μg/mL. […] The chip was regenerated with 10 mM glycine pH 1.5 and 10 mM NaOH between runs.

human CD32a 167H = target: T4, human CD32a 167H (human, UniProt P12318 36-218); experiment: as above
T4 construct: numbering not explained
T4 sequence (looked up): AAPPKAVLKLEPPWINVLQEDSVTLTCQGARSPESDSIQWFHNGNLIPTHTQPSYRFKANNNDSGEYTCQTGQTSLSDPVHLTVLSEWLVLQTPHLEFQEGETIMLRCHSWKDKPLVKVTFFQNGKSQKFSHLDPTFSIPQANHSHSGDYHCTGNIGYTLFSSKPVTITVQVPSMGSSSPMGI
Experimental: as §2

human CD32a 167R = target: T5, human CD32a 167R (human, UniProt P12318 36-218); experiment: as above
T5 construct: numbering not explained
T5 sequence (looked up): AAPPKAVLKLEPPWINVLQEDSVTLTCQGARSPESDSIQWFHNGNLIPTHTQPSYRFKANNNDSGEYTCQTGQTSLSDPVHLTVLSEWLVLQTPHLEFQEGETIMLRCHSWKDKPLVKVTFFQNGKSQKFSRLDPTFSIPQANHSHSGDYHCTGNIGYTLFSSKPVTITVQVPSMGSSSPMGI
Experimental: as §2

human CD32b = target: T6, human CD32b (human, UniProt P31994 46-217); experiment: as above
T6 sequence (looked up): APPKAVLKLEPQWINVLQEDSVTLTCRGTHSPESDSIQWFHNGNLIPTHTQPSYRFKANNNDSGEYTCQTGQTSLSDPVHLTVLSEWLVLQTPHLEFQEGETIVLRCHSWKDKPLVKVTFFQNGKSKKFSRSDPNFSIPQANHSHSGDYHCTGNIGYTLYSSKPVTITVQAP
Experimental: as §2

human CD16a 176F = target: T7, human CD16a 176F (human, UniProt P08637 17-208); experiment: as above
T7 construct: numbering not explained
Experimental: as §2

human CD16a 176V = target: T8, human CD16a 176V (human, UniProt P08637 17-208); experiment: as above
T8 construct: Allelic variant named only as '176V'; numbering not explained
Experimental: as §2

human CD16b = human CD16b (human, UniProt O75015 17-200, limits assumed); experiment: as above
Experimental: as §2

human FcRn = human FcRn (human, UniProt P55899 24-297; P61769 21-119); experiment: SPR (Biacore 8K+), antibody captured by anti-human kappa, human FcRn injected, pH 5.8; pH 5.8
Experimental: (§3) Briefly, a CM5 Series S sensor chip functionalized with anti-human kappa antibody was used to capture antibodies at 5 μg/mL. […] The chip was regenerated with 10 mM glycine pH 1.5 and 10 mM NaOH between runs.

C1q = target: T9, C1q; experiment: SPR (Biacore 8K+), antibody captured by anti-human IgG Fc, C1q injected at 25 nM, mean response
T9 construct: also called Clq
Experimental: as §2

cynomolgus FcRn = cynomolgus FcRn (cynomolgus, UniProt Q8SPV9 24-297; Q8SPW0 21-119); experiment: SPR (Biacore 8K+), antibody captured by anti-human kappa, cynomolgus FcRn injected, pH 5.8; pH 5.8
Experimental: as §3

biotinylated hOX40L = target: T10, biotinylated hOX40L (human, UniProt P23510 51-183, limits assumed, biotinylated (sites not given)); experiment: blocking ELISA: biotinylated hOX40L preincubated with titrated antibody, added to coated hOX40-Fc, Extravidin-HRP
T10 construct: construct not described
T10 sequence: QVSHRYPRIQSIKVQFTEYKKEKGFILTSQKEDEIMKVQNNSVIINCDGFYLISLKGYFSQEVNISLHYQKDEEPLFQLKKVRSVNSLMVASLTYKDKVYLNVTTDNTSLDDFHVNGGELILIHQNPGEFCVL

Sequence of human FcRn (P55899 24-297 limits assumed, form in doubt, chain 1 of 2): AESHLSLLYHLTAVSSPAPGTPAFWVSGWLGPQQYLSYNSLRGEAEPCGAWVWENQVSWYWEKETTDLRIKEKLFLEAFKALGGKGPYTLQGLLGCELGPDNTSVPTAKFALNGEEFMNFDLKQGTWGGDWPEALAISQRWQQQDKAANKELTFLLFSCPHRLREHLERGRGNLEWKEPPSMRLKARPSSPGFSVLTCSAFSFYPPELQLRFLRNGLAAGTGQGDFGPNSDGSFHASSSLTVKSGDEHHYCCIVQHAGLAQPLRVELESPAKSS
Sequence of human FcRn (P61769 21-119 limits assumed, form in doubt, chain 2 of 2): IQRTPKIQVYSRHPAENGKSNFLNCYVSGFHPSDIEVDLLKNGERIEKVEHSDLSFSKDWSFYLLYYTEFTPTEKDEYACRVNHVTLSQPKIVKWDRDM
Sequence of cynomolgus FcRn (Q8SPV9 24-297 limits assumed, chain 1 of 2): as the sequence (P55899 24-297 limits assumed, form in doubt, chain 1 of 2) above, with N39D, E44Q, G99S, S189G, S190N, L217M, S269T counted along it
Sequence of cynomolgus FcRn (Q8SPW0 21-119 limits assumed, chain 2 of 2): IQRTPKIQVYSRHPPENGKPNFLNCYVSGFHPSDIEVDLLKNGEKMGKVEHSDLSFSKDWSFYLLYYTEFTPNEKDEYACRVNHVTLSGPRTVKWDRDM
Sequence of human CD64 (P12314 16-288 limits assumed): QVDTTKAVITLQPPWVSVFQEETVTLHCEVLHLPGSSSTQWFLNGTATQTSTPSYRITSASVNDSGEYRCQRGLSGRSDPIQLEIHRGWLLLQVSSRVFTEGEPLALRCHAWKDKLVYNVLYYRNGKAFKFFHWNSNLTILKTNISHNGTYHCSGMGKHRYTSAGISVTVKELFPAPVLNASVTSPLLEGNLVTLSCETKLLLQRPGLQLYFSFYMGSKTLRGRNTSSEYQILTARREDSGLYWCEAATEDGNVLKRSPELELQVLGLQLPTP
T8 sequence (P08637 17-208 F176V limits assumed): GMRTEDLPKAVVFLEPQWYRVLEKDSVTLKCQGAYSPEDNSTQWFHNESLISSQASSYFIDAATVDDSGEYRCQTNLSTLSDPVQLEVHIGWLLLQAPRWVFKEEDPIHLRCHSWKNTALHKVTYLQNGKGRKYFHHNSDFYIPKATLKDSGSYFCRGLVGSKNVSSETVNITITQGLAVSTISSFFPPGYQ
T9 sequence (P02745 23-245, chain 1 of 3): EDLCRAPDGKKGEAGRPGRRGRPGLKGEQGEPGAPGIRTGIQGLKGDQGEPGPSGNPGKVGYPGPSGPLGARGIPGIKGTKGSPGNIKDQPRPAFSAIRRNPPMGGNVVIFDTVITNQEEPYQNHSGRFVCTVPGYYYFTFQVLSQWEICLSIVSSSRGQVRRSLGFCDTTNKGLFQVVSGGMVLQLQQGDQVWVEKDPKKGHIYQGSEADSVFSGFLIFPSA
T9 sequence (P02746 28-253, chain 2 of 3, further chain): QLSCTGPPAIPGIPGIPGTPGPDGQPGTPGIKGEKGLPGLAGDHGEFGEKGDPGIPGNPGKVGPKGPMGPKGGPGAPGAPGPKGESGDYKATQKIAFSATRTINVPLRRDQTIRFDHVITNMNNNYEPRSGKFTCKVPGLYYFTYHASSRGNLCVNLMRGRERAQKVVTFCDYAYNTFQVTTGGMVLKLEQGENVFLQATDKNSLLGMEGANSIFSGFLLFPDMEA
T9 sequence (P02747 29-245, chain 3 of 3, further chain): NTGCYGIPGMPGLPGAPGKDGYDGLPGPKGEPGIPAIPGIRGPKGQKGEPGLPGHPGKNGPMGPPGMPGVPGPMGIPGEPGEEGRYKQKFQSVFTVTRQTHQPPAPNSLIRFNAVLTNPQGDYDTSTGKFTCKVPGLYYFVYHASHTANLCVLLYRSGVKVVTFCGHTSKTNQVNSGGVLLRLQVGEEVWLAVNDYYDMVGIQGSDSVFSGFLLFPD
T7 sequence (P08637 17-208 limits assumed): as the sequence (P08637 17-208 F176V limits assumed) above, with V160F counted along it
Sequence of human CD16b (O75015 17-200 limits assumed): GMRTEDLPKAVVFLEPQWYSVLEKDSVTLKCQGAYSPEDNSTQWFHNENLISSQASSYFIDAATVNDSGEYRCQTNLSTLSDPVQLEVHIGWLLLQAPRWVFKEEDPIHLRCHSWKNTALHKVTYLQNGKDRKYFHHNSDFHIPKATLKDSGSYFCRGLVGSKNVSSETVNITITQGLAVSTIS

B1: anti-hOX40L antibody clone 231 (antibody, human IgG1, kappa, L234A L235A)
heavy: QVQLVQSGTEVKKPGASVKVSCKASGYTFTNYDINWVRQATGQGLEWVGWIHPNTGKTGYAQKFQGRVTMTRDISIGTAYMELNSLRSEDTAVYYCARESYDLWSGHSFNWFDPWGQGTLVTVSSASTKGPSVFPLAPSSKSTSGGTAALGCLVKDYFPEPVTVSWNSGALTSGVHTFPAVLQSSGLYSLSSVVTVPSSSLGTQTYICNVNHKPSNTKVDKKVEPKSCDKTHTCPPCPAPEAAGGPSVFLFPPKPKDTLYITREPEVTCVVVDVSHEDPEVKFNWYVDGVEVHNAKTKPREEQYNSTYRVVSVLTVLHQDWLNGKEYKCKVSNKALPAPIEKTISKAKGQPREPQVYTLPPSRDELTKNQVSLTCLVKGFYPSDIAVEWESNGQPENNYKTTPPVLDSDGSFFLYSKLTVDKSRWQQGNVFSCSVMHEALHNHYTQKSLSLSPG
light: DIQLTQSPSFLSASVGDRVIITCRASQGITSYLAWYQRKPGKAPKLLIYGATTLQSGVPSRFSGSGSGTEFTLTISSLQPEDFATYYCQQLQSYPYTFGQGTKLEIKRTVAAPSVFIFPPSDEQLKSGTASVVCLLNNFYPREAKVQWKVDNALQSGNSQESVTEQDSKDSTYSLSSTLTLSKADYEKHKVYACEVTHQGLSSPVTKSFNRGEC
What does the source list for B1?
IC50, luminescence (RLU), hOX40 reporter cells with 50 ng/mL hOX40L [1]: 0.909 nM; Kd [2]: 0.137 nM; koff [2]: 0.00013 s⁻¹; kon [2]: 943000 M⁻¹ s⁻¹; Kd [3]: 0.0714 nM; koff [3]: 0.000105 s⁻¹; kon [3]: 1.47e+06 M⁻¹ s⁻¹; binding result (human CD64): no binding (tested: 12.5 nM); binding result (human CD32a 167H): no binding (tested: 8 µM); binding result (human CD32a 167R): no binding (tested: 8 µM); binding result (human CD32b): no binding (tested: 18 µM); binding result (human CD16a 176F): no binding (tested: 6 µM); binding result (human CD16a 176V): no binding (tested: 6 µM); binding result (human CD16b): no binding (tested: 10 µM); Kd (human FcRn): 141 nM; koff (human FcRn): 0.0462 s⁻¹; kon (human FcRn): 328000 M⁻¹ s⁻¹; RU at 25 nM C1q (C1q): 1.8 RU; Kd (cynomolgus FcRn): 117 nM; koff (cynomolgus FcRn): 0.0465 s⁻¹; kon (cynomolgus FcRn): 398000 M⁻¹ s⁻¹; IC50 (biotinylated hOX40L): 28.5 nM

Reference: patent US20260217843A1 (APOGEE THERAPEUTICS, published 2026)
